Assay results: PMC10419308, “Structural Insight into the Amino Acid Environment of the Two-Domain Laccase’s Trinuclear Copper Cluster” (International Journal of Molecular Sciences, 2023)
Where a chain is given by its changes, count along the chain named. Names and notes keep the numbering of the source.

B1: SgfSL (Streptomyces griseoflavus Small Laccase) (Streptomyces griseoflavus; D268N/M199G/R240H) (protein)
chain: AGAAPAGGEVRRVTMYAERLAGGQMGYGLEKGKASIPGPLIELNEGDTLHVEFENTMDVPVSLHVHGLDYEISSDGTKQNKSHVEPGGTRTYTWRTHEPGRRADGTWRAGSAGYWHYHDHVVGTEHGTGGIRNGLYGPVIVRRKGDVLPDATHTIVFNDGTINNRPAHTGPNFEATVGDRVEIVMITHGEYYHTFHMHGHHWADNRTGMLTGPDDPSQVIDNKICGPANSFGFQIIAGEGVGAGAWMYHCHVQSHSDMGMVGLFLVKKPDGTIPGYDPQEHAH
notes: pET32-Xa/LIC, E. coli BL21(DE3)/Rosetta; N-terminal thioredoxin-His tail cut off with factor Xa; homotrimer; all variants tested here carry D268N (wild-type data copied from earlier work)
B2: SgfSL (Streptomyces griseoflavus Small Laccase) (Streptomyces griseoflavus; D268N/M199G) (protein)
chain: B1 chain with H201R
notes: as for B1
B3: SgfSL (Streptomyces griseoflavus Small Laccase) (Streptomyces griseoflavus; D268N/M199A) (protein)
chain: B1 chain with G160A, H201R
notes: as for B1

What was measured:
purified protein [1] = substrate: CCn1c(=NN=c2sc3cc(S(=O)(=O)O)ccc3n2CC)sc2cc(S(=O)(=O)O)ccc21; test: purified protein; assay type: biochemical, Streptomyces griseoflavus; conditions: pH 4.0, 50 mM Britton-Robinson buffer, 30 °C, co-substrate O2, table header prints unit as MM
purified protein [2] = substrate: COc1cccc(OC)c1O; test: purified protein; assay type: biochemical, Streptomyces griseoflavus; conditions: 30 °C, co-substrate O2, table header prints unit as MM
[3] = pH 8.5, 50 mM Britton-Robinson buffer
[4] = pH 7.5, 50 mM Britton-Robinson buffer
[5] = pH 7.0, 50 mM Britton-Robinson buffer

| Protein | Km (purified protein [1]) [mM] | kcat (purified protein [1]) [s⁻¹] | kcat/Km (purified protein [1]) [M⁻¹ s⁻¹] | Km (purified protein [2]; [3]) [mM] | kcat (purified protein [2]; [3]) [s⁻¹] | kcat/Km (purified protein [2]; [3]) [M⁻¹ s⁻¹] | Km (purified protein [2]; [4]) [mM] | kcat (purified protein [2]; [4]) [s⁻¹] | kcat/Km (purified protein [2]; [4]) [M⁻¹ s⁻¹] | Km (purified protein [2]; [5]) [mM] | kcat (purified protein [2]; [5]) [s⁻¹] | kcat/Km (purified protein [2]; [5]) [M⁻¹ s⁻¹] |
| --- | --- | --- | --- | --- | --- | --- | --- | --- | --- | --- | --- | --- |
| B1 | 0.25 ± 0.02 | 38.9 ± 0.99 | 156000 | 0.24 ± 0.03 | 8.19 ± 0.13 | 34100 |  |  |  |  |  |  |
| B2 | 0.22 ± 0.03 | 37.7 ± 2.41 | 171000 |  |  |  | 0.29 ± 0.02 | 1.88 ± 0.05 | 6490 |  |  |  |
| B3 | 0.11 ± 0.03 | 21.4 ± 1.12 | 195000 |  |  |  |  |  |  | 0.87 ± 0.1 | 0.8 ± 0.03 | 920 |
